Columns and labels:
[1] = target: MsSepF_(core) (C-terminal FtsZ-binding core of Methanobrevibacter smithii SepF, residues 54-149) (Methanobrevibacter smithii); assay: not stated; MsSepFcore in solution (Supplementary Fig. 6); method not given
[2] = target: MsSepF_(core) (C-terminal FtsZ-binding core of Methanobrevibacter smithii SepF, residues 54-149) (Methanobrevibacter smithii); assay: SPR; Biacore T200, 25 °C, 150 mmol/L NaCl, 25 mmol/L Hepes pH 8; MsSepFcore amine-coupled on CM5 (3200 and 5000 RU), FtsZCTD peptide flowed over; steady-state fit; apparent Kd

Sequence of MsSepF_(core) (C-terminal FtsZ-binding core of Methanobrevibacter smithii SepF, residues 54-149) (Methanobrevibacter smithii) (main, as listed by the source): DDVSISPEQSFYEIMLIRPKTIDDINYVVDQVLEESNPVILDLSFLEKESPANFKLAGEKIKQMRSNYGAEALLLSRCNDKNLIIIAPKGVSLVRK

| Molecule | stoichiometry N [1] | Kd [2] [µM] |
| --- | --- | --- |
| MsSepF_(core) (C-terminal FtsZ-binding core of Methanobrevibacter smithii SepF, residues 54-149) (domain or fragment) | 2 | – |
| NEDQLDDFIDGIF [FtsZCTD peptide (C-terminal domain of Methanobrevibacter smithii FtsZ)] | – | 84 |

Reference: paper PMC8178401
